The values that follow come from patent US20110076279A1 (SCHERING, published 2011).

Experiment [1] concerns the target T1, human VEGF165 (hVEGF165) (human, UniProt P15692 207-395). Briefly: DELFIA competition, biotinylated hVEGF165 0.5 µg/ml plus periplasmic scFv on VEGF-R1 or VEGF-R2 coated plate.
In experiment [2] the target is T1, human VEGF165 (hVEGF165). As to the kind of experiment: cell-based or functional assay.
Experiment [3] concerns the target T1, human VEGF165 (hVEGF165). Briefly: Biacore. In general terms: Surface plasmon resonance follows binding to a sensor surface in real time, without labels.
The target of experiment [4] is T1, human VEGF165 (hVEGF165). Briefly: cell-based or functional assay. This is another data set of the same source.
In experiment [5] the target is T2, murine VEGF165 (mVEGF165) (murine, UniProt Q00731-2 27-190).
T2 construct: also called rMu-VEGF165; recombinant mVEGF165
T2 sequence (looked up): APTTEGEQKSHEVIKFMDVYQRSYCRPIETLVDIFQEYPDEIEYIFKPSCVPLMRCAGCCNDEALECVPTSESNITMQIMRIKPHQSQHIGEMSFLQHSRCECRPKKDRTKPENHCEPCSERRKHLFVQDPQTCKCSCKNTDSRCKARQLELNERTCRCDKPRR
As to the kind of experiment: sandwich ELISA, antibody coated 5 ug/ml; sandwich ELISA, Ab coated at 5 ug/ml, murine VEGF165 at 1 ug/ml; signal at background, i.e. no binding. As for the experimental part:
(§1) The plate was blocked with 30% ChemiBlock™ reagent (Millipore) in PBS for one hour at room temperature, and 30, 60, or 100 μl of CHO-K1 culture supernatant for each mutant, or 1 μg/ml of wild-type hVEGF₁₂₁, recombinant hVEGF₁₆₅, or recombinant mVEGF₁₆₅, was added to appropriate wells. After one hour of incubation, the plate was washed and incubated with a biotinylated goat polyclonal anti-VEGF antibody for one hour at room temperature. Detection was performed with HRP-conjugated streptavidin, followed by TMB chromogenic substrate (Calbiochem) using manufacturer protocol.
For orientation: In an ELISA, binding on a coated surface is turned into a signal by an enzyme label.

Experiment [6] concerns the target T1, human VEGF165 (hVEGF165). Briefly: Biacore, IgG2 (summary table). As to the method: Dilution and running buffer for these experiments was HBS-EP (Biacore) with 1:50 dilution of Chemiblocker® (Chemicon). […] Antibody concentrations were approximately 0.5 μg/ml. hVEGF₁₆₅ expressed from sf21 cells was injected over five minutes at 30 μl/minute using the Kinject feature with 15 minute dissociation over fc1 and 2. […] Regenerations were performed with two injections of 100 mM HCl at 50 μl/minutes for twelve seconds each. Data was processed in Scrubber2 and fit by a 1:1 Langmuir interaction model after double referencing of the control flow cell and blank injections.

In a further experiment the target is T3, wild-type hVEGF121 (human, UniProt P15692-9 27-147).
T3 construct: Isoform VEGF121 of P15692
T3 sequence (looked up): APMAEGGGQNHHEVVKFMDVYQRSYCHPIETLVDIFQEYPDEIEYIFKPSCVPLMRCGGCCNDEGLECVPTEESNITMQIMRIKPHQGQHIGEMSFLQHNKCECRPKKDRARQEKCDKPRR
Briefly: sandwich ELISA, antibody coated 5 ug/ml. As for the experimental part: as §1

Experiment [7] addresses T1, human VEGF165 (hVEGF165). Briefly: sandwich ELISA, antibody coated 5 ug/ml. As to the method:
as §1

A further experiment has as its target T4, hVEGF121-G88S (human, UniProt P15692-9 27-147, G88S).
T4 construct: Transiently expressed in CHO-K1 cells; culture supernatant used
T4 sequence (looked up): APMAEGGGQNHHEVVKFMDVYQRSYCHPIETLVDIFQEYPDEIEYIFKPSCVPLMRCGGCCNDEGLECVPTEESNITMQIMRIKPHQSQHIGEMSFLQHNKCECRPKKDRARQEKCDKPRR
As to the kind of experiment: sandwich ELISA, antibody coated 5 ug/ml. As for the experimental part:
as §1

A further experiment addresses T5, hVEGF121-M81A (human, UniProt P15692-9 27-147).
T5 construct: Transiently expressed in CHO-K1 cells; culture supernatant used
T5 sequence (looked up): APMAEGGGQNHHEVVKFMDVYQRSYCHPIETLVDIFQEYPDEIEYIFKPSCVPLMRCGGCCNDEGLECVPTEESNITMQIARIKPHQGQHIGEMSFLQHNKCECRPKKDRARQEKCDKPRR
As to the kind of experiment: sandwich ELISA, antibody coated 5 ug/ml. As for the experimental part: as §1

The target of another experiment is T6, hVEGF121-Q89A (human, UniProt P15692-9 27-147, Q89A).
T6 construct: Transiently expressed in CHO-K1 cells; culture supernatant used
T6 sequence (looked up): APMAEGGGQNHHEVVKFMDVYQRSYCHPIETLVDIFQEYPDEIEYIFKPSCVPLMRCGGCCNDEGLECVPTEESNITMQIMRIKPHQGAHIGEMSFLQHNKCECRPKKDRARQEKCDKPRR
Briefly: sandwich ELISA, antibody coated 5 ug/ml. As to the method:
as §1

The target in a further experiment is T7, hVEGF121-G92A (human, UniProt P15692-9 27-147, G92A).
T7 construct: Transiently expressed in CHO-K1 cells; culture supernatant used
T7 sequence (looked up): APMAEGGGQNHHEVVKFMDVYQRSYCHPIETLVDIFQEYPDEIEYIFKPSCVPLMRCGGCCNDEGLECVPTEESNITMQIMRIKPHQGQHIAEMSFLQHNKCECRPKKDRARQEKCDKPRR
As to the kind of experiment: sandwich ELISA, antibody coated 5 ug/ml. As to the method: as §1

Where only a bound is given, the exact number is not on record here.

B1: XPA.10.072 scFv (scFv, part only; not given: linker, domain order, tags, V domains shown, not shown: another chain or arm of the molecule; large carriers; small tags and cut ends)
VH: RLQLVQSGAEVRKPGASVKVSCKASGYSFTGHYIHWARQAPGQGLEWMGWINPYSGGTNFPREFQGRVTMTRDTSVNTVYMELTRLTSDDTSVYYCARDHRIVGGLDYWGQGTLVTVSS
VL: QSVLTQPPSASGTPGQRVTISCSGSSSNLGSNFVYWYQQLPGTAPKLLIYRNHQRPSGVPDRFSGSKSGTSASLAISGLRSEDEADYYCASWDDSLRVVVFGGGTKLTVL
As to B1, in the experiment with human VEGF165 (hVEGF165) [1], the percent inhibition of hVEGF165 binding to receptor is > 60%.

B2: XPA.10.064 scFv (scFv, part only; not given: linker, domain order, tags, V domains shown, not shown: another chain or arm of the molecule; large carriers; small tags and cut ends)
VH: EVQLVQSGAEVRKPGASVKVSCKASGYSFTGHYIHWVRQAPGQGLEWMGWINPYSGGTNFPREFQGRVTMTRDTSVNTVYMELTRLTSDDTSVYYCARDHRIVGGLDYWGQGTLVTVSS
VL: SYVLTQPPSASGTPGQRVTISCSGSSSNIGINYVYWYQQLPGTAPKLLIYRNDQRPSGVPDRFSGSKSGTSASLAISGLRSEDEADYYCATWDDSLSGVVFGGGTKVTVL
On to B2, for which the percent inhibition of hVEGF165 binding to receptor in the experiment with human VEGF165 (hVEGF165) [1] is > 60%.

B3: XPA.10.064 scFv-Fc (Fc fusion, not shown: a dimerising Fc or GST; small tags and cut ends)
VH: EVQLVQSGAEVRKPGASVKVSCKASGYSFTGHYIHWVRQAPGQGLEWMGWINPYSGGTNFPREFQGRVTMTRDTSVNTVYMELTRLTSDDTSVYYCARDHRIVGGLDYWGQGTLVTVSS
VL: SYVLTQPPSASGTPGQRVTISCSGSSSNIGINYVYWYQQLPGTAPKLLIYRNDQRPSGVPDRFSGSKSGTSASLAISGLRSEDEADYYCATWDDSLSGVVFGGGTKVTVL
One may read the IC50 as the concentration at which inhibition is half-maximal. A lower IC50 goes with greater potency in that assay. The molecule B3 yielded an IC50 in the experiment with human VEGF165 (hVEGF165) [2] of 0.41 µg/mL.

B4: XPA.10.072 IgG2 (antibody, V domains shown)
VH: RLQLVQSGAEVRKPGASVKVSCKASGYSFTGHYIHWARQAPGQGLEWMGWINPYSGGTNFPREFQGRVTMTRDTSVNTVYMELTRLTSDDTSVYYCARDHRIVGGLDYWGQGTLVTVSS
VL: QSVLTQPPSASGTPGQRVTISCSGSSSNLGSNFVYWYQQLPGTAPKLLIYRNHQRPSGVPDRFSGSKSGTSASLAISGLRSEDEADYYCASWDDSLRVVVFGGGTKLTVL
notes: Fully human antibody from an scFv phage library, converted to IgG2 (gamma-2 heavy chain constant region); also called XPA.072; VPA.10.072
The Kd is a measure of binding affinity in units of concentration. With B4, the “off-rate relative to Bevacizumab” value with human VEGF165 (hVEGF165) [3] is ~2 fold. Further, in the experiment with human VEGF165 (hVEGF165) [4], the “Inhibition of HUVEC proliferation, HEK 293 hVEGF165, EC50” value worked out at 0.68 µg/mL. Moreover, the fold over background in experiment [5] came to 1.1 fold; with wild-type hVEGF121 it was 31.8 fold; in the experiment with human VEGF165 (hVEGF165) [7], 29.2 fold; with hVEGF121-G88S, 1 fold; with hVEGF121-M81A, 13.4 fold; in the experiment with hVEGF121-Q89A, 3.3 fold. Besides, the fold over background in the experiment with hVEGF121-G92A was found to be 30.5 fold. Also, the Kd with human VEGF165 (hVEGF165) [6] turned out to be 1.7 nM.

B5: XPA.10.072 scFv-Fc (Fc fusion, not shown: a dimerising Fc or GST; small tags and cut ends)
VH: RLQLVQSGAEVRKPGASVKVSCKASGYSFTGHYIHWARQAPGQGLEWMGWINPYSGGTNFPREFQGRVTMTRDTSVNTVYMELTRLTSDDTSVYYCARDHRIVGGLDYWGQGTLVTVSS
VL: QSVLTQPPSASGTPGQRVTISCSGSSSNLGSNFVYWYQQLPGTAPKLLIYRNHQRPSGVPDRFSGSKSGTSASLAISGLRSEDEADYYCASWDDSLRVVVFGGGTKLTVL
Consider B5, for which, in the experiment with human VEGF165 (hVEGF165) [2], the IC50 is > 1 µg/mL.

B6: XPA.10.064 IgG2 (antibody, V domains shown)
VH: EVQLVQSGAEVRKPGASVKVSCKASGYSFTGHYIHWVRQAPGQGLEWMGWINPYSGGTNFPREFQGRVTMTRDTSVNTVYMELTRLTSDDTSVYYCARDHRIVGGLDYWGQGTLVTVSS
VL: SYVLTQPPSASGTPGQRVTISCSGSSSNIGINYVYWYQQLPGTAPKLLIYRNDQRPSGVPDRFSGSKSGTSASLAISGLRSEDEADYYCATWDDSLSGVVFGGGTKVTVL
notes: Fully human antibody from an scFv phage library, converted to IgG2 (gamma-2 heavy chain constant region); also called VPA.10.064
Regarding B6, in the experiment with human VEGF165 (hVEGF165) [3], the “off-rate relative to Bevacizumab” value is ~2 fold. In the experiment with human VEGF165 (hVEGF165) [4], the “Inhibition of HUVEC proliferation, HEK 293 hVEGF165, EC50” value turned out to be 0.66 µg/mL. Further, the fold over background in experiment [5] was 0.7 fold; with wild-type hVEGF121 it was 29.1 fold; with human VEGF165 (hVEGF165) [7], 23 fold; with hVEGF121-G88S, 0.9 fold; in the experiment with hVEGF121-M81A it was 9.5 fold; with hVEGF121-Q89A it was 3.5 fold. The fold over background in the experiment with hVEGF121-G92A is 22.8 fold. Further, the equilibrium dissociation constant (Kd) with human VEGF165 (hVEGF165) [6] amounted to 1.5 nM.
